According to paper PMC10397247:
One block for each binder: values may come before it.

What was measured:
4H2859-bA = target: T1, 4H2859-bA; experiment: two-hybrid library CCNG1;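 also: natural log of median RNA to DNA barcode read ratio; higher means stronger binding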
T1 chain: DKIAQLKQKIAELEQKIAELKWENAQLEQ

4H3364-bA = target: T2, 4H3364-bA; experiment: two-hybrid library CCNG1;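 also: natural log of median RNA to DNA barcode read ratio; higher means stronger binding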
T2 chain: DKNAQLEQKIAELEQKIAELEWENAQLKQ

4H3297-bA = target: T3, 4H3297-bA; experiment: two-hybrid library CCNG1;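 also: natural log of median RNA to DNA barcode read ratio; higher means stronger binding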
T3 chain: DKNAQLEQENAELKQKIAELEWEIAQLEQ

4H796-bA = target: T4, 4H796-bA; experiment: two-hybrid library CCNG1;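 also: natural log of median RNA to DNA barcode read ratio; higher means stronger binding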
T4 chain: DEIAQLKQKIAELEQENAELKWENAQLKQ

4H2760-bA = target: T5, 4H2760-bA; experiment: two-hybrid library CCNG1;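 also: natural log of median RNA to DNA barcode read ratio; higher means stronger binding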
T5 chain: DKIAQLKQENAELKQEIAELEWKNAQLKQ

4H331-bA = target: T6, 4H331-bA; experiment: two-hybrid library CCNG1;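 also: natural log of median RNA to DNA barcode read ratio; higher means stronger binding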
T6 chain: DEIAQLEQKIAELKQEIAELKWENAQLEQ

4H949-bA = target: T7, 4H949-bA; experiment: two-hybrid library CCNG1
T7 chain: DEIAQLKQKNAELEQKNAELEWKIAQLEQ

4H3041-bA = target: T8, 4H3041-bA; experiment: two-hybrid library CCNG1
T8 chain: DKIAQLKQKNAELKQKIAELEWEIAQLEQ

4H2518-bA = target: T9, 4H2518-bA; experiment: two-hybrid library CCNG1
T9 chain: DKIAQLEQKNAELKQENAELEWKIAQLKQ

4H349-bA = target: T10, 4H349-bA; experiment: two-hybrid library CCNG1
T10 chain: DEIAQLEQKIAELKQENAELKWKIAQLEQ

4H235-bA = target: T11, 4H235-bA; experiment: two-hybrid library CCNG1
T11 chain: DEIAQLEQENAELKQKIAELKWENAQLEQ

4H56-bA = target: T12, 4H56-bA; experiment: two-hybrid library CCNG1
T12 chain: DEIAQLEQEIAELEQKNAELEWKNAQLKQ

4H2931-bA = target: T13, 4H2931-bA; experiment: two-hybrid library CCNG1
T13 chain: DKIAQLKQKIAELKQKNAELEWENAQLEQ

4H2444-bA = target: T14, 4H2444-bA; experiment: two-hybrid library CCNG1
T14 chain: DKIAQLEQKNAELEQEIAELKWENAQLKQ

4H454-bA = target: T15, 4H454-bA; experiment: two-hybrid library CCNG1
T15 chain: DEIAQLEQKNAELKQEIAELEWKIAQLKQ

4H575-bH = target: T16, 4H575-bH; experiment: two-hybrid library CCNG1
T16 chain: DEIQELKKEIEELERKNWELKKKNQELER

4H2585-bA = target: T17, 4H2585-bA; experiment: two-hybrid library CCNG1
T17 chain: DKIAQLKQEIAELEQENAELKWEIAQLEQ

4H264-bA = target: T18, 4H264-bA; experiment: two-hybrid library CCNG1
T18 chain: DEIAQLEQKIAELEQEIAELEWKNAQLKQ

4H932-bA = target: T19, 4H932-bA; experiment: two-hybrid library CCNG1
T19 chain: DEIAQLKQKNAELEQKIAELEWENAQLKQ

4H730-bA = target: T20, 4H730-bA; experiment: two-hybrid library CCNG1
T20 chain: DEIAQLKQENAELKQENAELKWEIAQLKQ

4H3381-bA = target: T21, 4H3381-bA; experiment: two-hybrid library CCNG1
T21 chain: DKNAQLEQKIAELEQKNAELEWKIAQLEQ

4H464-AA = target: T22, 4H464-AA; experiment: two-hybrid library CCmax; settings: mean of both orientations
T22 chain: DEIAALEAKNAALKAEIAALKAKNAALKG

4H3939-AA = target: T23, 4H3939-AA; experiment: two-hybrid library CCmax; settings: mean of both orientations
T23 chain: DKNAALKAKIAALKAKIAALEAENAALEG

4H483-AA = target: T24, 4H483-AA; experiment: two-hybrid library CCmax; settings: mean of both orientations
T24 chain: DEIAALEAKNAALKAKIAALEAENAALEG

4H1913-AA = target: T25, 4H1913-AA; experiment: two-hybrid library CCmax; settings: mean of both orientations
T25 chain: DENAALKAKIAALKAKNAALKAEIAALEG

4H2728-AA = target: T26, 4H2728-AA; experiment: two-hybrid library CCmax; settings: mean of both orientations
T26 chain: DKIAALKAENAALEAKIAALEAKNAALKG

4H3049-AA = target: T27, 4H3049-AA; experiment: two-hybrid library CCmax; settings: mean of both orientations
T27 chain: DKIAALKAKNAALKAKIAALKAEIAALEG

4H1558-AA = target: T28, 4H1558-AA; experiment: two-hybrid library CCmax; settings: mean of both orientations
T28 chain: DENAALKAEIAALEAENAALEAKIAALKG

4H63-AA = target: T29, 4H63-AA; experiment: two-hybrid library CCmax; settings: mean of both orientations
T29 chain: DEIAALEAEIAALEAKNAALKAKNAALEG

4H3969-AA = target: T30, 4H3969-AA; experiment: two-hybrid library CCmax; settings: mean of both orientations
T30 chain: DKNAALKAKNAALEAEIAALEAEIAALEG

4H2961-AA = target: T31, 4H2961-AA; experiment: two-hybrid library CCmax; settings: mean of both orientations
T31 chain: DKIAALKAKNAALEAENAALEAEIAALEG

4H2580-AA = target: T32, 4H2580-AA; experiment: two-hybrid library CCmax; settings: mean of both orientations
T32 chain: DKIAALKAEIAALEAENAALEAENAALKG

4H341-AA = target: T33, 4H341-AA; experiment: two-hybrid library CCmax; settings: mean of both orientations
T33 chain: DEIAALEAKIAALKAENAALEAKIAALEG

4H2699-AA = target: T34, 4H2699-AA; experiment: two-hybrid library CCmax; settings: mean of both orientations
T34 chain: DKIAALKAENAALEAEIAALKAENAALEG

4H446-AA = target: T35, 4H446-AA; experiment: two-hybrid library CCmax; settings: mean of both orientations
T35 chain: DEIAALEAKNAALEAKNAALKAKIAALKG

4H3129-AA = target: T36, 4H3129-AA; experiment: two-hybrid library CCmax; settings: mean of both orientations
T36 chain: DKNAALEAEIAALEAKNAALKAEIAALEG

4H2903-AA = target: T37, 4H2903-AA; experiment: two-hybrid library CCmax; settings: mean of both orientations
T37 chain: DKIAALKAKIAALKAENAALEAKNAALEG

4H249-AA = target: T38, 4H249-AA; experiment: two-hybrid library CCmax; settings: mean of both orientations
T38 chain: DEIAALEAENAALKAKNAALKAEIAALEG

4H3629-AA = target: T39, 4H3629-AA; experiment: two-hybrid library CCmax; settings: mean of both orientations
T39 chain: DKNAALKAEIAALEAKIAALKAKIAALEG

4H2774-AA = target: T40, 4H2774-AA; experiment: two-hybrid library CCmax; settings: mean of both orientations
T40 chain: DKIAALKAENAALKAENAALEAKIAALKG

4H3595-AA = target: T41, 4H3595-AA; experiment: two-hybrid library CCmax; settings: mean of both orientations
T41 chain: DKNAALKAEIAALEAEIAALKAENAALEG

4H2621-AA = target: T42, 4H2621-AA; experiment: two-hybrid library CCmax; settings: mean of both orientations
T42 chain: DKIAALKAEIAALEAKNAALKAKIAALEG

4H380-AA = target: T43, 4H380-AA; experiment: two-hybrid library CCmax; settings: mean of both orientations
T43 chain: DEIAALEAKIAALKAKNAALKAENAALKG

4H3782-AA = target: T44, 4H3782-AA; experiment: two-hybrid library CCmax; settings: mean of both orientations
T44 chain: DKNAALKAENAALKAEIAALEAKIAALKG

4H3414-AA = target: T45, 4H3414-AA; experiment: two-hybrid library CCmax; settings: mean of both orientations
T45 chain: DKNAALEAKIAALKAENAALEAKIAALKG

4H1454-AA = target: T46, 4H1454-AA; experiment: two-hybrid library CCmax
T46 chain: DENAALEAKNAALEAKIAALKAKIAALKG

- interaction score (4H2859-bA): -0.319
- interaction score (4H3364-bA): -0.845
- interaction score (4H3297-bA): -0.354
- interaction score (4H796-bA): -0.862
- interaction score (4H2760-bA): 1.96
- interaction score (4H331-bA): -2
- interaction score (4H949-bA): -0.885
- interaction score (4H3041-bA): 0.563
- interaction score (4H2518-bA): -0.69
- interaction score (4H349-bA): -0.682
- interaction score (4H235-bA): 0.082
- interaction score (4H56-bA): -1.05
- interaction score (4H2931-bA): -0.643
- interaction score (4H2444-bA): -0.488
- interaction score (4H454-bA): 0.0882
- interaction score (4H575-bH): -3.02
- interaction score (4H2585-bA): -0.367
- interaction score (4H264-bA): -0.636
- interaction score (4H932-bA): -0.974
- interaction score (4H730-bA): -0.952
- interaction score (4H3381-bA): -0.985
Binder: DEIAQLEQENAELKQKIAELKWENAQLEQ [4H235-bA]

- interaction score (4H464-AA): -1.48
- interaction score (4H3939-AA): -1.25
- interaction score (4H483-AA): -0.924
- interaction score (4H1913-AA): -1.24
- interaction score (4H2728-AA): -1.37
- interaction score (4H3049-AA): 0.754
- interaction score (4H1558-AA): -0.946
- interaction score (4H63-AA): -0.402
- interaction score (4H3969-AA): 2.05
- interaction score (4H2961-AA): 1.04
- interaction score (4H2580-AA): -0.961
- interaction score (4H341-AA): -1.24
- interaction score (4H2699-AA): -0.894
- interaction score (4H446-AA): -1.96
- interaction score (4H3129-AA): -1.84
- interaction score (4H2903-AA): -1.74
- interaction score (4H249-AA): -1.11
- interaction score (4H3629-AA): -1.38
- interaction score (4H2774-AA): -1.09
- interaction score (4H3595-AA): 0.813
- interaction score (4H2621-AA): -0.876
- interaction score (4H380-AA): -1.14
- interaction score (4H3782-AA): 0.615
- interaction score (4H3414-AA): -1.31
- interaction score (4H1454-AA): -1.09
Binder: DENAALEAKNAALEAKIAALKAKIAALKG [4H1454-AA]
